Data as given in PMC7955051.

Key:
[1] = biological target: RSV IN 1–278 (Rous sarcoma virus integrase, C-terminal truncation of 8 amino acids) (Rous sarcoma virus (Prague A)); assay: SEC
[2] = biological target: RSV IN 1–278 (Rous sarcoma virus integrase, C-terminal truncation of 8 amino acids) (Rous sarcoma virus (Prague A)); assay: cryo-EM structure
[3] = biological target: RSV IN S262R (recombinant) (Rous sarcoma virus (Prague A)); assay: not stated; CSC assembly with recombinant IN mutants (Supplementary Fig. 11)

Substance: RSV IN 1–278 (Rous sarcoma virus integrase, C-terminal truncation of 8 amino acids) (domain or fragment)
- stoichiometry N [1]: 8
- stoichiometry N [2]: 8

Substance: RSV IN S262R (recombinant) (enzyme)
- stoichiometry N [3]: 8
